B1: Myosin-binding protein C, slow-type (Homo sapiens), Q00872-4 (parent)
chain: MPEPTKKEENEVPAPAPPPEEPSKEKEAGTTPAKDEEEVSPPSALPPGLGSRALERKDSDWTLVETPPGEEQAKQNANSQLSILFIEKPQGGTVKVGEDITFIAKVKAEDLLRKPTIKWFKGKWMDLASKAGKHLQLKETFERHSRVYTFEMQIIKAKDNFAGNYRCEVTYKDKFDSCSFDLEVHESTGTTPNIDIRSAFKRSGEGQEDAGELDFSGLLKRREVKQQEEEPQVDVWELLKNAKPSEYEKIAFQYGITDLRGMLKRLKRMRREEKKSAAFAKILDPAYQVDKGGRVRFVVELADPKLEVKWYKNGQEIRPSTKYIFEHKGCQRILFINNCQMTDDSEYYVTAGDEKCSTELFVREPPIMVTKQLEDTTAYCGERVELECEVSEDDANVKWFKNGEEIIPGPKSRYRIRVEGKKHILIIEGATKADAAEYSVMTTGGQSSAKLSVDLKPLKILTPLTDQTVNLGKEICLKCEISENIPGKWTKNGLPVQESDRLKVVHKGRIHKLVIANALTEDEGDYVFAPDAYNVTLPAKVHVIDPPKIILDGLDADNTVTVIAGNKLRLEIPISGEPPPKAMWSRGDKAIMEGSGRIRTESYPDSSTLVIDIAERDDSGVYHINLKNEAGEAHASIKVKVVDFPDPPVAPTVTEVGDDWCIMNWEPPAYDGGSPILGYFIERKKKQSSRWMRLNFDLCKETTFEPKKMIEGVAYEVRIFAVNAIGISKPSMPSRPFVPLAVTSPPTLLTVDSVTDTTVTMRWRPPDHIGAAGLDGYVLEYCFEGTEDWIVANKDLIDKTKFTITGLPTDAKIFVRVKAVNAAGASEPKYYSQPILVKEIIEPPKIRIPRHLKQTYIRRVGEAVNLVIPFQGKPRPELTWKKDGAEIDKNQINIRNSETDTIIFIRKAERSHSGKYDLQVKVDKFVETASIDIQIIDRPGPPQIVKIEDVWGENVALTWTPPKDDGNAAITGYTIQKADKKSMEWFTVIEHYHRTSATITELVIGNEYYFRVFSENMCGLSEDATMTKESAVIARDGKIYKNPVYEDFDFSEAPMFTQPLVNTYAIAGYNATLNCSVRGNPKPKITWMKNKVAIVDDPRYRMFSNQGVCTLEIRKPSPYDGGTYCCKAVNDLGTVEIECKLEVKVIYQGVNTPGQPVFLEGQQQSLHNKDF

Assays:
acts_rabit ACTA1, P68135 = variants of: B1; conditions: with acts_rabit ACTA1, P68135
[1] = variants of: B1; conditions: with myh11_rabit MYH11, P35748
myh11_rabit MYH11, P35748, sequence (P35748 whole entry): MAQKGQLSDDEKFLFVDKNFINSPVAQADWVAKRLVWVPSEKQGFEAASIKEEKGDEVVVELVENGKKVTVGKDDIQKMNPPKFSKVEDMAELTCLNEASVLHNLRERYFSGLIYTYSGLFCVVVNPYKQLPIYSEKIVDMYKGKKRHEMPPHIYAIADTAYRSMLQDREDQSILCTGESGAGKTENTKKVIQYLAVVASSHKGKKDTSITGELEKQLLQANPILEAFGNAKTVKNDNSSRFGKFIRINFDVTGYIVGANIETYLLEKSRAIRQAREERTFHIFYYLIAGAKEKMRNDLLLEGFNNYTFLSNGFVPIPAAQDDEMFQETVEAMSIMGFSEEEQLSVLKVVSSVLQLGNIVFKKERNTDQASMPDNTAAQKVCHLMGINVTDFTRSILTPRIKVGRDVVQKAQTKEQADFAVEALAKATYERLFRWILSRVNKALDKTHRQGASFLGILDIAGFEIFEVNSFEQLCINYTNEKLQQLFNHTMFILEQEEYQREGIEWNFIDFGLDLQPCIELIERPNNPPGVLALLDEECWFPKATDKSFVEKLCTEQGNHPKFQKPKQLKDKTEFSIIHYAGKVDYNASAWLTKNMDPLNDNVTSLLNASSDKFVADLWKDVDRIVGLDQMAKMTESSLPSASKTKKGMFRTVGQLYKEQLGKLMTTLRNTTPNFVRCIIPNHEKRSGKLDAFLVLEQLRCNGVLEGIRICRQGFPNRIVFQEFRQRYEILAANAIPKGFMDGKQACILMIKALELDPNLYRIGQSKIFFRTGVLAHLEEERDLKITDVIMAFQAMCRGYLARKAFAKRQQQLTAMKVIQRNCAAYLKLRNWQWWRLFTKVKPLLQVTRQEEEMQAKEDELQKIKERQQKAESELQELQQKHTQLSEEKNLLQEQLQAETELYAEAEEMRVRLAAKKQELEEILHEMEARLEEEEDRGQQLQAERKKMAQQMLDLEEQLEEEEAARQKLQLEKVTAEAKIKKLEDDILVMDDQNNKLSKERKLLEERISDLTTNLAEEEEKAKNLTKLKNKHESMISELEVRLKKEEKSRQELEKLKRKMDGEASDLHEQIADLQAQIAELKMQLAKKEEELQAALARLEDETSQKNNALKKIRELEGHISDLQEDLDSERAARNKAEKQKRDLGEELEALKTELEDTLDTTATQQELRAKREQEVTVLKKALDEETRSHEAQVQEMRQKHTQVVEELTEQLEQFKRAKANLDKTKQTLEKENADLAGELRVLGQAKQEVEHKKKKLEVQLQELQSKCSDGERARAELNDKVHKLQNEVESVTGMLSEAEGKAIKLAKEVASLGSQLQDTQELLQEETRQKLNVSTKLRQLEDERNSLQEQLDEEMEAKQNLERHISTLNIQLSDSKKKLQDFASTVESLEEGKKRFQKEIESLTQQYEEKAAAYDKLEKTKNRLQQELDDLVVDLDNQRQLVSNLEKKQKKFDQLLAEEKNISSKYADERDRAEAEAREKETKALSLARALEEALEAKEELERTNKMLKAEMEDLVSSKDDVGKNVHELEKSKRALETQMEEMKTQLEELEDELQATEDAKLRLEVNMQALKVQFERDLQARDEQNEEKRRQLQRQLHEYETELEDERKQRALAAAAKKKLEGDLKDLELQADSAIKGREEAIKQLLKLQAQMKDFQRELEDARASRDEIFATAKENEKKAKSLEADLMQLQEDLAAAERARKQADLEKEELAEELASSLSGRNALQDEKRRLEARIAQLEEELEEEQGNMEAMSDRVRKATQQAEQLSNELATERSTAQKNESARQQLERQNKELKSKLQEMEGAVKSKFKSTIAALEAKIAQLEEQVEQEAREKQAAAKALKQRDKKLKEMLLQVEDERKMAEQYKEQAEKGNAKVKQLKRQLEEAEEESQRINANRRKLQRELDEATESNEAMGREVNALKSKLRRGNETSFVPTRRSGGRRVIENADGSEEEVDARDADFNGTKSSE

effect of a mutation on the interaction (acts_rabit ACTA1, P68135)	effect of a mutation on the interaction [1]	Variant
increasing interaction strength	increasing interaction strength	E248K
increasing interaction strength	increasing interaction strength	Y247H
